The record followed here is PMC3695727.

Broadly, the stoichiometry N is the number of molecules, sites or subunits per partner or assembly.

For this experiment, the target named is Orai expressed in cell membranes (Drosophila melanogaster) (UniProt Q9U6B8). Description: cross-linking.

The substance “Orai expressed in cell membranes (from UniProt Q9U6B8 1-351) (natural protein)” showed a stoichiometry N of 6.
